Patent publication US6444793

Biological target: patched (receptor for Shh), on patched-transfected EBNA-293 cells
Experiment: FACS competition with Shh-Ig on patched-transfected EBNA-293 cells

patched (receptor for Shh), on patched-transfected EBNA-293 cells, sequence (A3KBI9 whole entry): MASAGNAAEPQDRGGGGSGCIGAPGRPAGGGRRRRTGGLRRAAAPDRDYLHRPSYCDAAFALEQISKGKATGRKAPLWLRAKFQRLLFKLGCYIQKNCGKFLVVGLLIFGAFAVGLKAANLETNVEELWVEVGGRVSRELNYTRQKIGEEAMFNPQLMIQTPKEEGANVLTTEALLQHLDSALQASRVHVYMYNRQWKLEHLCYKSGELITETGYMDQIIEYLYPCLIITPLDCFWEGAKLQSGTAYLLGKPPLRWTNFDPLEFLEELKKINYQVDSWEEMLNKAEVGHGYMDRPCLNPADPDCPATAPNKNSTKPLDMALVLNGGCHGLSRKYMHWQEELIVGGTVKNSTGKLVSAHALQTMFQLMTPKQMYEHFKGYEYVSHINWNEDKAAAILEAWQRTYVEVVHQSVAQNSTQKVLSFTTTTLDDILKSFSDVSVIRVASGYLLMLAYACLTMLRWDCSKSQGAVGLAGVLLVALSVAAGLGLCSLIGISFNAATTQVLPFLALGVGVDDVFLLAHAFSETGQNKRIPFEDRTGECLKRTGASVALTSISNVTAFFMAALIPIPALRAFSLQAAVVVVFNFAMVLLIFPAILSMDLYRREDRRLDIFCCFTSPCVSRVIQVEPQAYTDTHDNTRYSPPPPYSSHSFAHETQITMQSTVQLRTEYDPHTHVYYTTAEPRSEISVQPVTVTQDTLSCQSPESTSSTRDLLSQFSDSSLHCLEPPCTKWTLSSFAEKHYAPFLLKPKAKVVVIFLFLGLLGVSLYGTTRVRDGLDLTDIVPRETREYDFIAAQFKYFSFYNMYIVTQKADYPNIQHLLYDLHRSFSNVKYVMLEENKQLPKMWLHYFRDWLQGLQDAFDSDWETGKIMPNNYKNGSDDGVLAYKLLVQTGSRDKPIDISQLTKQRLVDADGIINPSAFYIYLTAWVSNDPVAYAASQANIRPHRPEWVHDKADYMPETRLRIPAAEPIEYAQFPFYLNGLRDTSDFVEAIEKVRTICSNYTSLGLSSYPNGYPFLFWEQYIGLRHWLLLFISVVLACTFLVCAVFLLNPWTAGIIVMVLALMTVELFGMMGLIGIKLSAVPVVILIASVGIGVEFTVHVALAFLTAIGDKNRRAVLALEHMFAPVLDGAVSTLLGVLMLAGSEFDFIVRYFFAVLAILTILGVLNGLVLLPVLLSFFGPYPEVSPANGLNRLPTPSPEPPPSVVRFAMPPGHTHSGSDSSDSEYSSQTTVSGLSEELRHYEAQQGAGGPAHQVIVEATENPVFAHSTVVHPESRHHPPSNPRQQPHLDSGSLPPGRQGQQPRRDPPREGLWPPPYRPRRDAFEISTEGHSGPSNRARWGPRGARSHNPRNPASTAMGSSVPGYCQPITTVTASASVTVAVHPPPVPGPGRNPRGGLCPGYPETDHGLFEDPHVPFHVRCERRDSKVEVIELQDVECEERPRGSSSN

IC50 | Substance
0.4 µg/mL | tethered human Sonic hedgehog (N-terminal fragment with a palmitoyl group at the N-terminus and cholesterol at the C-terminus, purified from High Five insect cells) (from UniProt Q14623 28-201) (ligand)
0.15 µg/mL | soluble human Sonic hedgehog N-terminal fragment (unmodified, Cys-1 to Gly-174, produced in E. coli) (from UniProt Q14623 28-201) (ligand)
